From US20200207857A1 (SPARX BIOSCIENCE, published 2020) come the findings set out here.

Where a chain is given by its changes, count along the chain named.

The target of experiment [1] is T1, human Claudin 18.2 (CLDN 18.2) expressed on HEK293 / HEK293T cells (human).
T1 construct: Full-length CLDN18.2 on transiently or stably transfected HEK293/HEK293T cells; also called CLD18.2
Put plainly: flow cytometry on HEK293 cells transiently transfected with GFP and human CLDN 18.2. As for the experimental part:
After cell detachment using 2 mM EDTA/PBS cells were washed with complete growth medium and plated at approximately 1-5×10⁵ cells/well in U-bottom microtiter plates. Cells were incubated for […]. at 4° C. with monoclonal antibody 3B8 followed by three washing steps with ice cold PBS and finally incubation with Dylight 650-conjugated secondary anti-IgG antibody. Binding was assessed by flow cytometry using a BD, Accuri™ C6 Plus. Fluorescence marker expression was plotted on the horizontal axis against antibody binding on the vertical axis. Mouse antibodies 3B8 were detected to bind specifically to the surface of fluorescence marker expressing HEK293 cells (FIG. 3, cells in Q5-UR).

For experiment [2], the target named is T1, human Claudin 18.2 (CLDN 18.2) …. In words: cell-based ELISA (InCell Elisa) on formalin-fixed HEK293_CLDN18.2 cells, OD450; Kd box under the graph, no unit in the box, unit from the x axis log[antibody] nM; the curve on HEK293T cells stays flat at about 0.1. (ELISA stands for enzyme-linked immunosorbent assay.)
The target is the same in experiment [3]. Put plainly: cell-based ELISA (InCell Elisa) on fixed HEK293_CLDN18.2 cells, OD450; Kd table under the graph, no unit in the table, unit from the x axis log[antibody] ug/ml.
Experiment [4] shares this target. Put plainly: cell-based ELISA (InCell Elisa) on fixed HEK293_CLDN18.2 cells, y axis RLU; Kd table under the graph, no unit in the table, unit from the x axis log[antibody] ug/ml.

T1 sequence (chain, as listed by the source limits assumed): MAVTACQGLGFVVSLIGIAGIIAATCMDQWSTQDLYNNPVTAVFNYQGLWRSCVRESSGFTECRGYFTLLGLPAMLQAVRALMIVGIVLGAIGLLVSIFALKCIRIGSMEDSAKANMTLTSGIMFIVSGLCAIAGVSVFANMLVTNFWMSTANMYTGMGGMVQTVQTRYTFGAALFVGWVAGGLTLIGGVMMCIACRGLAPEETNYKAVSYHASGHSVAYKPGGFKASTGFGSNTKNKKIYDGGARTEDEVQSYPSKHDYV

B1: Anti-CLDN 18.2-3B8 (antibody, V domains shown)
VH: EVKLVESGGGLVKPGGSLKLSCAASGFTFSSYAMSWVRQTPEKRLEWVASISSGGSTYYPDSVKGRFTISRDNARNILYLQMSSLRSEDTAMYYCASFGYDVAMDYWGQGTSVTVSS
VL: DVLMTQTPLSLPVSLGDQASISCRSSQSIVHSNGNTYLQWYLQKPGQSPKLLIYKVSNRFSGVPDRFSGSGSGTDFTLKISRVEAEDLGVYYCFQGSHVPFTFGSGTKLEIK
notes: Mouse monoclonal antibody; also called monoclonal antibody 3B8
Usually EC50 stands for the concentration at which the effect is half-maximal. Low readings indicate a more potent agent, high ones a less potent agent. B1 returned an EC50 in experiment [1] of 1 to 2 µg/mL.

B2: Anti-CLDN 18.2-5C9o (humanized antibody h5C9o) (antibody, V domains shown)
VH: EVQLVESGGGLVQPGGSLRLSCAVSGYTFSMNWVRQAPGKGLEWVAWINMYTGEPTYADDFKGRFTISRDDSKNTLYLQMNSLRAEDTAVYYCARLYNGNSLDYWGQGTLVTVSS
VL: DIQMTQSPSSLSASVGDRVTITCKSSQSLLNSGNQKSYLTWYQQKPGKAPKLLIYWASTLESGVPSRFSGSGSGTDYTLTISSLQPEDFATYYCQNAYSFPFTFGQGTKVEIK
notes: Humanized IgG; The general method joins the variable domains to human IgG1 constant domains; Full chains are not mapped to the name; also called CLDN18.2-h5C9o
As a reminder, the Kd is the concentration at which binding is half-saturated. Regarding B2, the figures for the Kd in experiment [2] and in experiment [3] were 0.169 nM and 0.126 µg/mL, respectively.

B3: humanized anti-Claudin 18.2 antibody h5C9oao (antibody, human IgG1, kappa, V domains shown)
VH: B2 VH with Y97A, N98R, L102M
VL: DIQMTQSPSSLSASVGDRVTITCKSSQSLLNSGNQKSYLTWYQQKPGKAPKLLIYWASTLESGVPSRFSGSGSGTDYTLTISSLQPEDFATYYCQNAYFFPFTFGQGTKVEIKR
In the case of B3, the Kd in experiment [4] was 0.154 µg/mL; in experiment [3] it was 0.149 µg/mL.

B4: Anti-CLDN 18.2-5C9oai (humanized antibody h5C9oai) (antibody, human IgG1, V domains shown)
VH: B2 VH with Y97A, N98R, L102M
VL: B2 VL
notes: the general method uses human IgG1 constant domains
As for B4, the Kd in experiment [4] was 0.18 µg/mL.

B5: Anti-CLDN 18.2-5C9oae (humanized antibody h5C9oae) (antibody, human IgG1, V domains shown)
VH: B2 VH with N98R
VL: B2 VL with S99F
notes: as for B4
Consider B5, for which the results for the Kd in experiment [4] and in experiment [3] were 0.184 µg/mL and 0.123 µg/mL, respectively.

B6: h5C9o Fc mutation (antibody, V domains shown)
VH: B2 VH
VL: B3 VL with F99S
For B6, the Kd came to 0.225 µg/mL in experiment [4] and 0.213 µg/mL in experiment [3].

B7: Anti-CLDN 18.2-5C9oag (humanized antibody h5C9oag) (antibody, human IgG1, V domains shown)
VH: B2 VH with Y97A, N98R, L102I
VL: B2 VL
notes: as for B4
In experiment [4], B7 had a Kd of 0.191 µg/mL.

B8: humanized anti-Claudin 18.2 antibody h5C9oan (antibody, human IgG1, kappa, V domains shown)
VH: B2 VH with L96S, Y97S, N98R, S101G, L102F
VL: B3 VL
For B8, the Kd in experiment [4] is 0.194 µg/mL; in experiment [3] it was 0.168 µg/mL.

B9: Anti-CLDN 18.2-5C9ob (humanized antibody h5C9ob) (antibody, human IgG1, V domains shown)
VH: B2 VH
VL: B2 VL with S99F
notes: the general method uses human IgG1 constant domains; also called CLDN18.2-h5C9ob
As for B9, the Kd was 0.206 µg/mL in experiment [4] and 0.153 µg/mL in experiment [3].
